Assay [1] concerns the target T1, 4-1BB expressed on Jurkat cells (4-1BB-Jurkat cells; GloResponse NFkB-luc2/4-1BB Jurkat cell line) (human, UniProt Q07011 24-255). Kind of assay: cell-based or functional assay.
Assay [2] concerns the target T2, human PD-L1-Fc protein (Sinobio, 10084-H02H) (human, UniProt Q9NZQ7 19-239).
T2 construct: Purchased reagent; not shown: Fc part of the purchased fusion
Kind of assay: DACE (dual antigen capture ELISA): plate coated with human PD-L1-Fc, then bispecific, then human 4-1BB-His, anti-His HRP. As for the experimental part: (§1) Briefly, microtiter plates were coated with 100 ng/well of human PD-L1-Fc protein (Sinobio, 10084-H02H) in PBS at 4° C. overnight, then blocked with 100 μl/well of 1% BSA for 2 hours at 37° C. Three-fold dilutions of each of the BsAbs starting from 100 nM were added to each well and incubated for 2 hours at 37° C. The plates were washed with PBS/Tween and then incubate with 50 ng/well of human 4-1BB-His protein (Sinobio, 16498-H08H) in 1% BSA for 1 hour at 37° C. The plates were washed with PBS/Tween and then incubate with Anti-His HRP (Roche, Cat: 11965085001) for 1 hour at 37° C. After washing, the plates were developed with TMB substrate and analyzed by spectrophotometer at OD 450-650 nm.

Assay [3] has as its target T2, human PD-L1-Fc protein (Sinobio, …). As to the kind of experiment: DACE after incubation in human serum for 3, 7, 14 days at 37 C. As to the method:
as §1, with “Binding activity was analyzed to DACE (Dual antigen captured ELISA) test. Briefly,” for “Briefly,”

The target is the same in assay [4]. As to the kind of experiment: DACE (dual antigen capture ELISA): bispecific titrated on coated human PD-L1-Fc; signal also needs binding of human 4-1BB-His (anti-His HRP). As for the experimental part:
as §1
For orientation: ELISA stands for enzyme-linked immunosorbent assay.

Assay [5] has the same target. Kind of assay: DACE after incubation in human serum at 37 C for 0, 3, 7 or 14 days: bispecific titrated on coated human PD-L1-Fc; signal also needs binding of human 4-1BB-His (anti-His HRP). As for the experimental part:
as §1, with “Binding activity was analyzed to DACE (Dual antigen captured ELISA) test. Briefly,” for “Briefly,”

For assay [6], the target named is T1, 4-1BB expressed on Jurkat cells …. Kind of assay: cell-based or functional assay. The source holds these as a separate data set.
Assay [7] has as its target T3, human 4-1BB-His protein (Sinobio, 16498-H08H) (human, UniProt Q07011 24-186).
T3 construct: Purchased reagent; not shown: His tag of the purchased protein
As to the kind of experiment: DACE (dual antigen capture ELISA): bispecific captured on coated human PD-L1-Fc binds soluble human 4-1BB-His, detected with anti-His HRP. As to the method: as §1

Assay [8] concerns the target T3, human 4-1BB-His protein (Sinobio, …). As to the kind of experiment: DACE after incubation in human serum for 3, 7, 14 days at 37 C. As to the method: as §1, with “Binding activity was analyzed to DACE (Dual antigen captured ELISA) test. Briefly,” for “Briefly,”
For assay [9], the target named is PD-L1 (Biacore kinetics, Example 1.5) (UniProt Q9NZQ7 19-238, limits assumed). As to the kind of experiment: SPR (Biacore), affinity ranking.
In assay [10] the target is T4, 4-1BB (Octet Red 96 kinetics, Example 2.2(3)) (human, UniProt Q07011 24-186, limits assumed).
T4 construct: also called human 4-1BB
Kind of assay: BLI (Octet Red 96), affinity ranking. An excerpt: To explore the binding kinetics of the humanized antibody, this example performed the affinity ranking by using Octet Red 96.

In assay [11] the target is T5, human 4-1BB-Fc protein (human, UniProt Q07011 24-186, limits assumed).
T5 construct: not shown: Fc part of the fusion
As to the kind of experiment: ELISA, plate coated with human 4-1BB-Fc, detection with anti-human IgG-HRP, OD 450-630 nm. As for the experimental part: To evaluate the antigen binding activity, the antibody candidates were subjected to ELISA test. Briefly, microtiter plates were coated with human 4-1BB-Fc protein at 0.1 μg/ml in PBS, 100 μl/well at 4° C. overnight, then blocked with 100 μl/well of 5% BSA. […] The plates were washed with PBS/Tween and then incubate with goat-anti-human IgG antibody conjugated with Horse Radish Peroxidase (HRP) for 1 hour at RT. After washing, the plates were developed with TMB substrate and analyzed by spectrophotometer at OD 450-630 nm.

Assay [12] deals with T1, 4-1BB expressed on Jurkat cells …. As to the kind of experiment: cell-based or functional assay. This is another data set of the same source.

Where a chain is given by its changes, count along the chain named. Names and notes keep the numbering of the source. Read-outs that look alike come from different tables or passages of the source.

T1 sequence (Q07011 24-255 limits assumed): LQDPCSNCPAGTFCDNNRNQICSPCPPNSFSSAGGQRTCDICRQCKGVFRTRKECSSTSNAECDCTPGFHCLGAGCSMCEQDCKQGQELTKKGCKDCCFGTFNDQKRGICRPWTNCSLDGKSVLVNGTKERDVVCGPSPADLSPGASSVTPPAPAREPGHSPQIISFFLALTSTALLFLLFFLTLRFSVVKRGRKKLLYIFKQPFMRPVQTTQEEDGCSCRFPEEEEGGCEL
PD-L1 (Biacore kinetics, Example 1.5), sequence (Q9NZQ7 19-238 limits assumed): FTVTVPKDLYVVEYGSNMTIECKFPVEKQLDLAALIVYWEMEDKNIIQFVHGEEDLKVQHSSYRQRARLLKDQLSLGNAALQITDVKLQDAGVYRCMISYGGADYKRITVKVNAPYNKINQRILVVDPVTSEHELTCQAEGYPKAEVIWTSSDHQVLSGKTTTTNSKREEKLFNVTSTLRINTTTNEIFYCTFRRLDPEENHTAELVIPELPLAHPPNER
T2 sequence (Q9NZQ7 19-239): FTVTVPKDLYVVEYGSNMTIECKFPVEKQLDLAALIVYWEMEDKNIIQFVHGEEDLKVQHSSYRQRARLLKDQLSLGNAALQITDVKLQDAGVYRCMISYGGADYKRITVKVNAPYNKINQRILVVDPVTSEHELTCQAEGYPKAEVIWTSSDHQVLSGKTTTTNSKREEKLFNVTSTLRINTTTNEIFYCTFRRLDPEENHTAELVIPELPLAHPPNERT

B1: ABLPNB.03 (H12x41B02; anti-PD-L1 H12 in IgG form and anti-4-1BB 41B02 in scFv form) (bispecific antibody)
heavy: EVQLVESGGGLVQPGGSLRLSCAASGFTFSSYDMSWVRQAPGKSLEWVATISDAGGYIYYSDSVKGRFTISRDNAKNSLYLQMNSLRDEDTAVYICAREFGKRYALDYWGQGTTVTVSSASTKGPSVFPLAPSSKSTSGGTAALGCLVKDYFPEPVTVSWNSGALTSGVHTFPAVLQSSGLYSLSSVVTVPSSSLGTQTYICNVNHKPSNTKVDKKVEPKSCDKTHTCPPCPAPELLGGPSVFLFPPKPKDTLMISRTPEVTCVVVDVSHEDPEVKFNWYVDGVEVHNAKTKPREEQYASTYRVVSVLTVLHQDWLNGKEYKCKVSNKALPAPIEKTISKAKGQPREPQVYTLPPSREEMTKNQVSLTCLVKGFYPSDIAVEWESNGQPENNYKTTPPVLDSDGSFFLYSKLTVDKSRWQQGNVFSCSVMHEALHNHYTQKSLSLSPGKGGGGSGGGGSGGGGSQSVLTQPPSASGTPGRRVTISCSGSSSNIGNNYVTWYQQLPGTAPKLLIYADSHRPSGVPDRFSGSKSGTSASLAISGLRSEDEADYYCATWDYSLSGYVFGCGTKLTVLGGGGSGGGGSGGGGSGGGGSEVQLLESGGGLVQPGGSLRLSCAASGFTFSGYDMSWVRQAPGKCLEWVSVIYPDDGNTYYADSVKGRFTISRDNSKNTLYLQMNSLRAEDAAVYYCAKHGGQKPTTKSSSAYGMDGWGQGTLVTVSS
light: DIQMTQSPSSLSASVGDRVTITCKASQDVTPAVAWYQQKPGKAPKLLIYSTSSRYTGVPSRFSGSGSGTDFTFTISSLQPEDIATYYCQQHYTTPLTFGQGTKLEIKRTVAAPSVFIFPPSDEQLKSGTASVVCLLNNFYPREAKVQWKVDNALQSGNSQESVTEQDSKDSTYSLSSTLTLSKADYEKHKVYACEVTHQGLSSPVTKSFNRGEC
notes: IgG x scFv form, IgG1 N297A backbone
In the case of B1, in [1], the “EC50 (read off the curve), NFkB-luc2/4-1BB Jurkat reporter with PD-L1 positive target cells” value (from here on “EC50 … with PD-L1 positive target cells”) was about 100 pM. Also, the binding result in [2] is listed as “binds”.

B2: ABLPNB.05 (B6x41B01.01; anti-PD-L1 B6 in IgG form and anti-4-1BB 41B01.01 in scFv form) (bispecific antibody)
heavy: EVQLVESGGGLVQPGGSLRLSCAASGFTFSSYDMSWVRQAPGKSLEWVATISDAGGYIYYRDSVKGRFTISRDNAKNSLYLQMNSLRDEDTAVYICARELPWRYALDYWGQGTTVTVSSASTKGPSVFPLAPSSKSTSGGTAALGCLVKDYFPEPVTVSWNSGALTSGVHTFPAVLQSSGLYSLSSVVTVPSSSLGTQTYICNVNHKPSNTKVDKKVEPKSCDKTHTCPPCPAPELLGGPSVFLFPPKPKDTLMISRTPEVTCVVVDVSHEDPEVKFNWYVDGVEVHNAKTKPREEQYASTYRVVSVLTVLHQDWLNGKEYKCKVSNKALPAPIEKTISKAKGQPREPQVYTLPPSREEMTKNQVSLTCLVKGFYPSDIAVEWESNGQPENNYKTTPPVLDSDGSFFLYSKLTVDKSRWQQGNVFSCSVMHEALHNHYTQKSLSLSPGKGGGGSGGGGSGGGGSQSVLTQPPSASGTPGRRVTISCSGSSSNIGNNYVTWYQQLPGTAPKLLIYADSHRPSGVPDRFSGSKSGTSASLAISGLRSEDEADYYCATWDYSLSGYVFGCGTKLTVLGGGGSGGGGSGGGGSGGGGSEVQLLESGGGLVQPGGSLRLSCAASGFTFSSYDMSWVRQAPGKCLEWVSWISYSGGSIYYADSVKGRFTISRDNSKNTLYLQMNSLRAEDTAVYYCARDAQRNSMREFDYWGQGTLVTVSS
light: B1 light
notes: as for B1
Regarding B2, in [3], the binding result is “binds”.

B3: ABLPNB.07 (B6x41B01.03; anti-PD-L1 B6 in IgG form and anti-4-1BB 41B01.03 in scFv form) (bispecific antibody)
heavy: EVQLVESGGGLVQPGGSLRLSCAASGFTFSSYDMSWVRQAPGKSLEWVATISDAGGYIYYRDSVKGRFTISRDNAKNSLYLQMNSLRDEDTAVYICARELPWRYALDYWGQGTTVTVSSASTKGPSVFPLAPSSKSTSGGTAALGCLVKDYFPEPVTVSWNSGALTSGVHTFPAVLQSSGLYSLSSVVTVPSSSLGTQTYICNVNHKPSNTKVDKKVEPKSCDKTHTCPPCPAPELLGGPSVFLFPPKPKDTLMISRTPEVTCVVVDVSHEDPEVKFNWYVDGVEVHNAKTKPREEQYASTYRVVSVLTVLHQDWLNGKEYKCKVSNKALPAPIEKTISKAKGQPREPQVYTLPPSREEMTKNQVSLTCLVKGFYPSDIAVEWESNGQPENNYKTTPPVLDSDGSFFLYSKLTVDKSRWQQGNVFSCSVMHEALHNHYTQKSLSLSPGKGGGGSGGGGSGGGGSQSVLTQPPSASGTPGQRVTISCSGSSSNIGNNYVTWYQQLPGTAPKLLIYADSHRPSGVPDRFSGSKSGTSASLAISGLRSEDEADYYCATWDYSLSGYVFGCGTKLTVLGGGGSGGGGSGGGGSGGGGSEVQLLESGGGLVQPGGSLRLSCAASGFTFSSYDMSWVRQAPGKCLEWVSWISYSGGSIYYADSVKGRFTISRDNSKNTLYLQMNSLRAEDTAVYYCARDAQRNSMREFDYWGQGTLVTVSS
light: B1 light
notes: as for B1
As usually defined, the EC50 (read off the curve) is the concentration at which the effect is half-maximal. Low values mean a more potent agent, high ones a less potent agent. Regarding B3, the “EC50 (read off the curve)” value in assay [4] is about 900 pM; in [5] it was about 200 pM. Moreover, the “EC50 … with PD-L1 positive target cells” value in assay [6] is about 60 pM.

B4: ABLPNB.01 (H12x41B01; anti-PD-L1 H12 in IgG form and anti-4-1BB 41B01 in scFv form) (bispecific antibody)
heavy: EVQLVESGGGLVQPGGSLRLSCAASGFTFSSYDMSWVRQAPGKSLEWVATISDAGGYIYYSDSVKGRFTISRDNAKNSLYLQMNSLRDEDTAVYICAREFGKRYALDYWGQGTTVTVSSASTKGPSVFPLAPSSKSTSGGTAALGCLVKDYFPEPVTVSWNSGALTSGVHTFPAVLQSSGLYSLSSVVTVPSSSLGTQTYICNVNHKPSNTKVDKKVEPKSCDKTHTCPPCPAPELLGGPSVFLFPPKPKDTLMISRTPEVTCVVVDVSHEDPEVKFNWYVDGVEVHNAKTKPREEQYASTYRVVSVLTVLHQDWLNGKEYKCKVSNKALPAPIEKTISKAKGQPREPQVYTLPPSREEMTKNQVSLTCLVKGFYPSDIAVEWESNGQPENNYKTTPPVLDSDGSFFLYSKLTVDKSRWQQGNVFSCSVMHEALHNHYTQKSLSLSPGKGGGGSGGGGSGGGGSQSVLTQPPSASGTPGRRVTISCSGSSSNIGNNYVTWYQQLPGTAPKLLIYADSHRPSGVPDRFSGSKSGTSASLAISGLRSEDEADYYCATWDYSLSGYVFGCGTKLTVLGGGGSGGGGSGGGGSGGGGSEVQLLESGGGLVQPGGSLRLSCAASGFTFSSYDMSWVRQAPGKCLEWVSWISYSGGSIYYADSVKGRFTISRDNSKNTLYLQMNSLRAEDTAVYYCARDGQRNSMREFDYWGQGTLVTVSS
light: B1 light
notes: IgG x scFv form; The heavy component is the H12 heavy chain (IgG1 N297A), a linker, and the scFv (VL-linker-VH, disulfide VL103-VH44)
In the case of B4, the binding result in assay [7] and in assay [2] was “binds” each time.

B5: ABLPNB.04 (B6x41B01; anti-PD-L1 B6 in IgG form and anti-4-1BB 41B01 in scFv form) (bispecific antibody)
heavy: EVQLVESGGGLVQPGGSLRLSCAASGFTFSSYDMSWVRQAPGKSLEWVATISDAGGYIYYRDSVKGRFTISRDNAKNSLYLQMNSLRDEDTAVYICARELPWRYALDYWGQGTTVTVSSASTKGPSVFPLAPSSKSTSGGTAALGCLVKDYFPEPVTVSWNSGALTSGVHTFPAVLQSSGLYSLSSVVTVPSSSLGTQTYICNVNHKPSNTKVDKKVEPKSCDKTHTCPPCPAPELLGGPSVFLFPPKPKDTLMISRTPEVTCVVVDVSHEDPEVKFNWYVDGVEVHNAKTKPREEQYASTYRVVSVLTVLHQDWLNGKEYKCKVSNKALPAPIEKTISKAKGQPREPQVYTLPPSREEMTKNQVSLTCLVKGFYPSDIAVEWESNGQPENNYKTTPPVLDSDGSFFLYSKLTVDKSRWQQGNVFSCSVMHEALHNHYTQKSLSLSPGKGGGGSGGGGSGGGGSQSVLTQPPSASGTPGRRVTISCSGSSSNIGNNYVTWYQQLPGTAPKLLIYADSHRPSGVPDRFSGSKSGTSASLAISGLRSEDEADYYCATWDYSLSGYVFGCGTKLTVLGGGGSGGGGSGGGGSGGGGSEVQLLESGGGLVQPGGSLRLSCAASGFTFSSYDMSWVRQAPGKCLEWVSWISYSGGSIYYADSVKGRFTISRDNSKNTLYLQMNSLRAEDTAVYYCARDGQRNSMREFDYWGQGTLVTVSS
light: B1 light
notes: as for B1
With B5, in [4], the 50% effective concentration (EC50 (read off the curve)) was about 600 pM. In addition, the binding result in assay [7] is “binds”.

B6: ABLPNB.08 (B6x41B01.04; anti-PD-L1 B6 in IgG form and anti-4-1BB 41B01.04 in scFv form) (bispecific antibody)
heavy: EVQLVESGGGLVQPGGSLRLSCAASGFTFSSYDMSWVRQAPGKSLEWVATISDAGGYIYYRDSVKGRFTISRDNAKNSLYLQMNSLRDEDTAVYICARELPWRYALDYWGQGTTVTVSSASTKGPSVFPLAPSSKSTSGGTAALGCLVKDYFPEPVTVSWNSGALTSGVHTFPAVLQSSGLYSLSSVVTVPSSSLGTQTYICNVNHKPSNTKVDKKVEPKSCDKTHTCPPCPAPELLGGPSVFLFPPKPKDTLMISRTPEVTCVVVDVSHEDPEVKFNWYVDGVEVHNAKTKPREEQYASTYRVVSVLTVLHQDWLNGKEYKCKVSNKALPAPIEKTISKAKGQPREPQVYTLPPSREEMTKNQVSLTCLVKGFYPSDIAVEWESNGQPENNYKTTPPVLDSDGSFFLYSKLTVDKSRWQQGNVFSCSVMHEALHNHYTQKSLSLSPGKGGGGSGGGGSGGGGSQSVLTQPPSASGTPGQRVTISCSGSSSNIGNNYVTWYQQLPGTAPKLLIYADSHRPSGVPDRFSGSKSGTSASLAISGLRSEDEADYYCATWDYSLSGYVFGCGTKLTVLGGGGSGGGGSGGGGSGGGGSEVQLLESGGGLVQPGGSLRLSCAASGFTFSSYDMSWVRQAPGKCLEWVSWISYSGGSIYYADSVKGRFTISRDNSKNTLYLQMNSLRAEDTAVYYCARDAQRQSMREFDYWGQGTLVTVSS
light: B1 light
notes: as for B1
As to B6, the “EC50 … with PD-L1 positive target cells” value in [6] is about 90 pM. The binding result in assay [3] is “binds”.

B7: ABLPNB.06 (anti-PD-L1 B6 in IgG form and anti-4-1BB 41B01.02 in scFv form) (bispecific antibody)
heavy: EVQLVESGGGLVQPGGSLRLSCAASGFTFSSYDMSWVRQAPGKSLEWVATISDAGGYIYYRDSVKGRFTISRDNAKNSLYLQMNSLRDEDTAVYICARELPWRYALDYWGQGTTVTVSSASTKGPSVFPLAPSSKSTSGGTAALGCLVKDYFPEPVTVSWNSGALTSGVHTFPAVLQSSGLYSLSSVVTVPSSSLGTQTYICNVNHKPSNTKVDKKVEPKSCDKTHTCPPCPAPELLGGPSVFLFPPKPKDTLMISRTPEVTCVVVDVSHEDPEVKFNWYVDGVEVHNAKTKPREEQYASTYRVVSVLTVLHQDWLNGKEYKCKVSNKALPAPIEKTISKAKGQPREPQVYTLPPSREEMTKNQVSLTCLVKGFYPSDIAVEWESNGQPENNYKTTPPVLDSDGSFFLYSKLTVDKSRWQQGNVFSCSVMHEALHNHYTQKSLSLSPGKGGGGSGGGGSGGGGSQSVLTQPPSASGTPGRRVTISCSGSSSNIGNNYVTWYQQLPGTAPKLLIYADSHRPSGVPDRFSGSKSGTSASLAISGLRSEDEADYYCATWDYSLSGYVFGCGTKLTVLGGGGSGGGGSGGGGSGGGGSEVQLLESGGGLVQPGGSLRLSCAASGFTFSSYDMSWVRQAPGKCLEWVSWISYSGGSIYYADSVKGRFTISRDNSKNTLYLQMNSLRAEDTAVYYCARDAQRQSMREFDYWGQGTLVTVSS
light: B1 light
notes: as for B1
For B7, the binding result in [8] and in assay [3] was “binds” throughout.

B8: H12 (Hu1210-41; Hu1210 VH.4d x Hu1210 VK.1) (antibody, V domains shown)
VH: EVQLVESGGGLVQPGGSLRLSCAASGFTFSSYDMSWVRQAPGKSLEWVATISDAGGYIYYSDSVKGRFTISRDNAKNSLYLQMNSLRDEDTAVYICAREFGKRYALDYWGQGTTVTVSS
VL: DIQMTQSPSSLSASVGDRVTITCKASQDVTPAVAWYQQKPGKAPKLLIYSTSSRYTGVPSRFSGSGSGTDFTFTISSLQPEDIATYYCQQHYTTPLTFGQGTKLEIK
notes: also called WT (H12)
For orientation: Kd means the concentration at which binding is half-saturated. Low readings indicate a tighter complex, high ones a looser complex. Broadly, the koff is the first-order rate constant of dissociation. Low values mean slow dissociation, high ones fast dissociation. What is called kon is the second-order rate constant of association. Low values mean slow association, high ones fast association. In assay [9], B8 returned a Kd of 6120 pM, a koff of 0.000436 s⁻¹ and a kon of 71200 M⁻¹ s⁻¹.

B9: B6 (anti-PD-L1 clone derived from Hu1210-41) (antibody, V domains shown)
VH: B8 VH with S61R, F100L, G101P, K102W
VL: B8 VL
In [9], B9 gave an equilibrium dissociation constant (Kd) of 4250 pM, a koff of 0.000418 s⁻¹ and a kon of 98300 M⁻¹ s⁻¹.

B10: 41B01 (anti-4-1BB monoclonal antibody) (antibody, V domains shown)
VH: EVQLLESGGGLVQPGGSLRLSCAASGFTFSSYDMSWVRQAPGKGLEWVSWISYSGGSIYYADSVKGRFTISRDNSKNTLYLQMNSLRAEDTAVYYCARDGQRNSMREFDYWGQGTLVTVSS
VL: QSVLTQPPSASGTPGRRVTISCSGSSSNIGNNYVTWYQQLPGTAPKLLIYADSHRPSGVPDRFSGSKSGTSASLAISGLRSEDEADYYCATWDYSLSGYVFGGGTKLTVL
notes: Detected with anti-human IgG, so it was tested as a human IgG
B10: in assay [10], the dissociation constant Kd worked out at 180 pM, the koff is 0.000119 s⁻¹ and the kon amounted to 658000 M⁻¹ s⁻¹. Also, the “EC50 (read off the curve)” value in [11] was about 80 pM. Moreover, in [12], the “EC50 (read off the curve), NFkB-luc2/4-1BB Jurkat reporter, Fc-crosslinked antibody” value is about 4000 pM.

B11: 41B02 (anti-4-1BB monoclonal antibody) (antibody, V domains shown)
VH: EVQLLESGGGLVQPGGSLRLSCAASGFTFSGYDMSWVRQAPGKGLEWVSVIYPDDGNTYYADSVKGRFTISRDNSKNTLYLQMNSLRAEDAAVYYCAKHGGQKPTTKSSSAYGMDGWGQGTLVTVSS
VL: B10 VL
notes: Detected with anti-human IgG
For the molecule B11, in assay [10], binding was characterised by a dissociation constant (Kd) of 1010 pM, the koff was found to be 0.000603 s⁻¹ and the on-rate (kon) turned out to be 595000 M⁻¹ s⁻¹. For the same molecule, the concentration giving a half-maximal response (EC50 (read off the curve)) in assay [11] was about 200 pM.

Source of the values: patent publication US20250145718A1 (ABL BIO, published 2025).
